The values below come from patent US12383631.

In test [1] the target is T1, IL-18 receptor (IL-18Rα/IL-18Rβ) on cells (HEK-Blue IL18R reporter cells, NK-92, KG-1) (human) (UniProt Q13478).
T1 sequence (looked up) 1: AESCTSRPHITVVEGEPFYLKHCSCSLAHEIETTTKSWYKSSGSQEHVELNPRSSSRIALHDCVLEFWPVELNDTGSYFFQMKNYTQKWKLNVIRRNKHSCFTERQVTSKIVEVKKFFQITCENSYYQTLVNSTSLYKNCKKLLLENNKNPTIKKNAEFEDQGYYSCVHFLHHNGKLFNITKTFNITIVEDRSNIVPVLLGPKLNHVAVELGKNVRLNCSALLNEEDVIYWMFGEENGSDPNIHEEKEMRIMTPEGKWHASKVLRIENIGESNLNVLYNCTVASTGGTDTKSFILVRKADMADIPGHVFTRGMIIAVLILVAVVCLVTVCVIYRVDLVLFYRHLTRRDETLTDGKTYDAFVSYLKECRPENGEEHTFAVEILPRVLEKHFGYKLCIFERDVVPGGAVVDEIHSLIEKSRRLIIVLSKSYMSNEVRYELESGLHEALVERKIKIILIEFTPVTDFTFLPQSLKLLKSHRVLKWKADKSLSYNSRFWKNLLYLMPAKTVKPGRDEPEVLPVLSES
T1 sequence (looked up) 2: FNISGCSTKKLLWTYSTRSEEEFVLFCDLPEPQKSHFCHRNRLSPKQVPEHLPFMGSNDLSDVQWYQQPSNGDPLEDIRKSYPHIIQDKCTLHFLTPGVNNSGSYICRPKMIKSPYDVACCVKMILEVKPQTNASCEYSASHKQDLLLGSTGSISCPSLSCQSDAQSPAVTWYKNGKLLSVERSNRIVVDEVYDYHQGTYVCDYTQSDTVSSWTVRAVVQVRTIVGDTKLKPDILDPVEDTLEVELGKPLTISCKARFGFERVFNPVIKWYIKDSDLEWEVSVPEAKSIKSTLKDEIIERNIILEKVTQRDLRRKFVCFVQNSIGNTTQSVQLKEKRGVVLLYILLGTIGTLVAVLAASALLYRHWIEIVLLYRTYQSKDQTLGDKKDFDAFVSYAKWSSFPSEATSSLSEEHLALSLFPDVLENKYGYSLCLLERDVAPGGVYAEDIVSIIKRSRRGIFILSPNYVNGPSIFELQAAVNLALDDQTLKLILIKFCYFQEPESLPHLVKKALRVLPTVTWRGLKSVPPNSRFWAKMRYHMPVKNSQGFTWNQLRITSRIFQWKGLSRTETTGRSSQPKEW
Kind of test: cell-based or functional assay.

Test [2] addresses T2, human IL-18BP-His (human), O95998.
T2 chain: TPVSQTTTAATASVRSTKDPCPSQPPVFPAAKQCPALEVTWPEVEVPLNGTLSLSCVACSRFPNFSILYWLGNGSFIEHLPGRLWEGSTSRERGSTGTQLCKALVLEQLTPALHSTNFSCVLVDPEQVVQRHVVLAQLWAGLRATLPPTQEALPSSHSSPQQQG
Put plainly: AlphaLISA of free IL-18BP. As to conditions: remark: other sources report otherwise.

Substitutions are numbered along the chain they refer to. Names and notes keep the numbering of the source.

B1: Composition F (Trastuzumab/Herceptin conjugated to IL-18 polypeptide of SEQ ID NO: 60) (protein, part only; not given: trastuzumab heavy and light chains, part only)
chain: YFGKLKSKLSVIRNLNDQVLFIDQGNRPLFEDMTDSDQRDNAPRTIFIISMYADSQPRGMAVTISVKCEKISTLSCENKIISFKEMNPPDNIKDTKSDIIFFQRSVPGHDNKMQFESSSYEGYFLACEKERDLFKLILKKEDELGDRSIMFTVQNED
modifications: chemical linker to the antibody; site not stated
Regarding B1, the EC50, IFNγ secretion, NK92 cells in test [1] is 0.064 nM.

B2: IL-18 polypeptide of SEQ ID NO: 35 (Y01G, F02A, E06K, M51G, K53A, D54A, S55A, T63A), Q14116 37-193 (ligand)
chain: B1 chain with Y1G, F2A, Q38C, M51G, D54A, S55A, T63A
What is called Kd is the equilibrium constant for the complex coming apart. B2: the Kd in test [2] was 969 nM. That is a sub-micromolar value.
